Reference: patent publication US20200392472

System: T1, GeoCas9 (Geobacillus stearothermophilus)
T1 sequence: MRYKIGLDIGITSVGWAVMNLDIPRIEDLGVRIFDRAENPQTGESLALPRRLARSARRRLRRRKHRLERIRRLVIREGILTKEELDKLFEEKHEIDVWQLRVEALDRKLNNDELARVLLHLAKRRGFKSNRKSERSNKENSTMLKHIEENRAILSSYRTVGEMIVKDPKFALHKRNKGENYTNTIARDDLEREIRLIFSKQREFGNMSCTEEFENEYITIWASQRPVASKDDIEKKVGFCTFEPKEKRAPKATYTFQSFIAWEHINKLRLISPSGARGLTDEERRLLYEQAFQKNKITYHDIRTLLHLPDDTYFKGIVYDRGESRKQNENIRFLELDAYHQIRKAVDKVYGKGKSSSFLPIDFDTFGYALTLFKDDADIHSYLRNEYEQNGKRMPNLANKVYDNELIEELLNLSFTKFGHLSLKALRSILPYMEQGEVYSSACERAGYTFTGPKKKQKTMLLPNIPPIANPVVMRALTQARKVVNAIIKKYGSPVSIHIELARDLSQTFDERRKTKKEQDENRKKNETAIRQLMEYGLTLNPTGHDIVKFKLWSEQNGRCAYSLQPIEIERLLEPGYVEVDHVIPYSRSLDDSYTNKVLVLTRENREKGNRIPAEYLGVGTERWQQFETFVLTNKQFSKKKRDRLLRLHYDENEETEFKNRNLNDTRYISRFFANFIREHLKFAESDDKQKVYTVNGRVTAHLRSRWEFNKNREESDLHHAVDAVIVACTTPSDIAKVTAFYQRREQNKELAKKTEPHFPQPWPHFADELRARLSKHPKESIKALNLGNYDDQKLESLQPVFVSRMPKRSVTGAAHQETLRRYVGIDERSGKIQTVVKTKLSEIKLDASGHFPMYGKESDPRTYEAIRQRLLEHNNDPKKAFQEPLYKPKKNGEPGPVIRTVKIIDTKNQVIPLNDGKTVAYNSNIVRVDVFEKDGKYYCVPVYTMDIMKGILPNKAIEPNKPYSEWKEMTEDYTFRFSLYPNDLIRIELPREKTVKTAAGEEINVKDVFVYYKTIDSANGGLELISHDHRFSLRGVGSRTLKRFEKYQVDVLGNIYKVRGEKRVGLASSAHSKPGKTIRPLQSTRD
Assay: cleavage_in_vitro
Conditions: 21-22 nt spacer cleaves more than 5-fold faster than 20 nt; 37 C; exact substrate PAM not given

“GeoCas9 sgRNA with 20 nt spacer ; radiolabeled target DNA with CRAA PAM” showed a cleavage rate fold increase of over 5 fold.
